In patent US20130273062A1, “ANTIBODIES AGAINST HUMAN CD39 AND USE THEREOF” (OREGA BIOTECH, priority 2010, published 2013):

T1: CD39 ATPase activity of melanoma cells (SK-MEL-5) (Homo sapiens, UniProt P49961)
T1 construct: SK-MEL-5 and SK-MEL-28 cell lines display membranous expression of CD39; endogenous in cells; host or cells: SK-MEL-5 melanoma cells
T1 sequence (P49961 1-510): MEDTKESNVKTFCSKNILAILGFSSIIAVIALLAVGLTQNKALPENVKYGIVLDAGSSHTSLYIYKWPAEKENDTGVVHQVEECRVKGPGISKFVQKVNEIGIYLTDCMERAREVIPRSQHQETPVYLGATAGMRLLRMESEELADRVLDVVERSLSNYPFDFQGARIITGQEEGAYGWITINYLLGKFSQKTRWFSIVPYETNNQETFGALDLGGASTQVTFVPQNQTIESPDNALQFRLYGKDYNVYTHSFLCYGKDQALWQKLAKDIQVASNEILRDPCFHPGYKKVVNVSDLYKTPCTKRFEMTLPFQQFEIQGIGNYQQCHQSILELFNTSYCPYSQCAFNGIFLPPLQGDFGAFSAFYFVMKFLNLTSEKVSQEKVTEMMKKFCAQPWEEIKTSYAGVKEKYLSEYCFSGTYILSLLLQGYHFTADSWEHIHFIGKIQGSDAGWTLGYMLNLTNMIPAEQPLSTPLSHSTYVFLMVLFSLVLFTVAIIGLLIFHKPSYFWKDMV

T2: CD39 ATPase activity of lymphoma cells (Ramos) (Homo sapiens, UniProt P49961)
T2 construct: BL41, B104 and Ramos express CD39 at their cell surface; endogenous in cells; host or cells: Ramos Burkitt lymphoma cells
T2 sequence (P49961 1-510): T1 sequence (P49961 1-510)

B1: BA54g: CD39 monoclonal antibody from hybridoma CNCM I-4171; VH SEQ ID NO: 11, VL SEQ ID NO: 15 (antibody, listed as Mus musculus, V domains shown)
VH: DVQLVESGGGLVQPGGSRKLSCAASGFTFSSFGMHWVRQAPEKGLEWVAYISSGSSIIYYADTVKGRFTISRDNPKNTLFLQMTSLGSEDTAMYYCARWSTTVVATDYWGQGTTLTVS
VL: NIVMTQSPKSMSMSVGERVTLTCKASENVVTYVSWYQQKPEQSPKLLIYGASNRYTGVPDRFTGSGSATDFTLTISSVQAEDLADYHCGQGYSYPYTFGGGTKLEIKR
B2: BY40: murine CD39 antibody from hybridoma CNCM I-3889; VH SEQ ID NO: 1, VL SEQ ID NO: 5 (antibody, listed as Mus musculus)
VH: TRVKKPRETVKISCKASGYTFTHYGMNWVKQAPGKGLKWMGWINTYTGEPTYADDFKGRFAFSLEASVSTAYLQINNLKNEDTATYFCARRRYEGNYVFYYFDYWGQGTTLTVSSAKTTPPSVYPLAPGSAAQTNSMVTLGCLVKGYFPEQVTVTWNSGSLSSGVHTFPAVLQSDLYTLSSSVTVPS
light: DIQMTQSPASLSASVGETVTITCRASENIYSYFSWYQQKQGKSPQLLVYTAKTLAEGVPSRFSGSGSGTQFSLKINSLQPEDFGSYYCQHHYVTPYTFGGGTKLEIKRADAAPTVSIFPPSSEQLTSGGASVVCFLNNFYPKDINVKWKIDGSERQNGVLNSWTD

What was measured:
[1] = system: CD4 and CD8 T cells (PBMC) cultured with CD39-expressing SK-MEL-5 melanoma cells; assay: Inhibition of melanoma cell-mediated suppression: proliferation of CFSE-labelled T cells co-cultured with irradiated SK-MEL-5; format: cell-based, human; settings: CFSE-labelled PBMC + irradiated SK-MEL-5, 5 days, BY40 5 μg/mL, POM-1 100 or 250 μM, flow cytometry; for CD4 T cell proliferation: FIG. 4A; for CD8 T cell proliferation: FIG. 4B
Method: (§1) FIG. 4: CD39 antibody (BY40) restores T cell responses against melanoma cells. 5×10^4 CFSE-labelled PBMC were cultured in the presence of 5×10^3 irradiated (100 Gy) SK-MEL-5 (NT). POM-1 (100 or 250 μM), BY40 or control isotype antibody D6212 (5 μg/mL) were added at the beginning of the culture and after 2 days of culture. After 5 days of culture, proliferation of CFSE-labelled CD4 (A) and CD8 (B) T cells was analysed by flow cytometry. Experiment was performed in duplicate and results are representative of 2 independent experiments.
as §1, with “5×10^4” for “FIG. 4: CD39 antibody (BY40) restores T cell responses against melanoma cells. 5×10^4”

[2] = target: T1, CD39 ATPase activity of melanoma cells (SK-MEL-5); assay: Inhibition of melanoma-CD39 enzymatic (ATPase) activity, phosphate release measured with Malachite green; format: cell-based; settings: SK-MEL-5 cells cultured with mAb for 16 h, then 100 μM ATP for 15 min; FIG. 3
Method: (§2) FIG. 3: CD39 (BA54g) antibody inhibits CD39 ATPase activity of melanoma cells. 1×10^5 melanoma cells (SK-MEL-5) were cultured in complete RPMI medium alone or in presence of BA54g mAb for 16 h. Cells were then washed three times in phosphate free buffer (10 mM glucose, 20 mM Hepes, 5 mM KCl, 120 mM NaCl, 2 mM CaCl2) and resuspended in the same buffer supplemented with 100 μM ATP for 15 min. Phosphate concentration in supernatants was measured after addition of Malachite green/polyvinylalcohol/ammonium mobylate solution for 20 min by a spectrophotometer at 620 nm and compared against a standard curve. Experiment was performed in triplicate.
as §2, with “Protocol:” for “FIG. 3: CD39 (BA54g) antibody inhibits CD39 ATPase activity of melanoma cells.”, “min” for “min.”

[3] = target: T2, CD39 ATPase activity of lymphoma cells (Ramos); assay: Inhibition of lymphoma-CD39 enzymatic (ATPase) activity, phosphate release measured with Malachite green; format: cell-based; settings: Ramos cells cultured with increasing doses of mAb for 16 h, then 100 μM ATP for 15 min; FIG. 7
Method: (§3) FIG. 7: CD39 antibodies inhibit CD39 ATPase activity of lymphoma cells. 1×10^5 lymphoma cells (Ramos) were cultured in complete RPMI medium alone or in presence of BA54g, BY12 or BY40 mAbs, at the indicated concentrations, for 16 h. Cells were then washed three times in phosphate free buffer (10 mM glucose, 20 mM Hepes, 5 mM KCl, 120 mM NaCl, 2 mM CaCl2) and resuspended in the same buffer supplemented with 100 μM ATP for 15 min. Phosphate concentration in supernatants was measured after addition of Malachite green/polyvinylalcohol /ammonium mobylate solution for 20 min by a spectrophotometer at 620 nm and compared against a standard curve. Results are the mean of two independent experiments.
as §3, with “1×10^5” for “FIG. 7: CD39 antibodies inhibit CD39 ATPase activity of lymphoma cells. 1×10^5”, “KC1,” for “KCl,”

Row | Molecule | CD4 T cell proliferation [1] | CD8 T cell proliferation [1] | CD39 enzymatic activity of melanoma cells [2] | CD39 activity of lymphoma cells [3]
1 | [Na+].[Na+].[Na+].[Na+].[Na+].[Na+].[O]=[W](=[O])([O-])[O-].[O]=[W](=[O])([O-])[O-].[O]=[W](=[O])([O-])[O-].[O]=[W](=[O])=[O].[O]=[W](=[O])=[O].[O]=[W](=[O])=[O].[O]=[W](=[O])=[O].[O]=[W](=[O])=[O].[O]=[W](=[O])=[O].[O]=[W](=[O])=[O].[O]=[W](=[O])=[O].[O]=[W](=[O])=[O] [POM-1, sodium metatungstate, reference compound] | increased | increased | – | –
2 | B1 | – | – | inhibits CD39 enzymatic activity in a dose dependant manner | inhibited CD39 activity in a dose dependant manner
3 | B2 | increased | increased | – | inhibited CD39 activity in a dose dependant manner
